The values that follow are results of earlier work, collected in PMC5477003.

The data set addresses integrin αIIbβ3 (Homo sapiens) (UniProt P08514).

As for CD40L (from UniProt P29965), the dissociation constant (Kd) (commonly the concentration at which binding is half-saturated) was 30 nM.
